Here are results for one molecule from patent US6037450.

For the assay, the target named is human protein C (human) (UniProt P04070). Put plainly: protein C affinity column (protein C held on HPC4 mAb-AffiGel-10, 3 mM CaCl2, 0.6 mM MgCl2); EPCR antigen in the fractions measured by ELISA. (In general: ELISA stands for enzyme-linked immunosorbent assay.)
Chain of UniProt P04070 (P04070 43-461): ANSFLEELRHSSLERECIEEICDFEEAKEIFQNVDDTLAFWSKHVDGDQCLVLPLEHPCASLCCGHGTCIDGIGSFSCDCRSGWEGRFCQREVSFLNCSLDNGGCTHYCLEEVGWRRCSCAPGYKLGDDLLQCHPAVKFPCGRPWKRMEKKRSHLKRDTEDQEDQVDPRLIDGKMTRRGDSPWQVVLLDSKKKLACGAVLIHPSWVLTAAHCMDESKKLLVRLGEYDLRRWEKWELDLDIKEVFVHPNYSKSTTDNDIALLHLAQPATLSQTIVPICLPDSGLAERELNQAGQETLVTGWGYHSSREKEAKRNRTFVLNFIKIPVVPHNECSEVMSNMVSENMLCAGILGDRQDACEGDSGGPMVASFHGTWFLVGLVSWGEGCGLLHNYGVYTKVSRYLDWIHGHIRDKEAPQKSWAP

B1: plasma EPCR (soluble endothelial cell protein C/activated protein C receptor purified from human citrated plasma) (receptor)
chain: SQDASDGLQRLHMLQISYFRDPYHVWYQGNASLGGHLTHVLEGPDTNTTIIQLQPLQEPESWARTQSGLQSYLLQFHGLVRLVHQERTLAFPLTIRCFLGCELPPEGSRAHVFFEVAVNGSSFVSFRPERALWQADTQVTSGVVTFTLQQLNAYNRTRYELREFLEDTCVQYVQKHISAENTKG
In the case of B1, the percent of applied antigen bound was more than 98%.
